Data from US20250361288A1 (Gilead, published 2025).

Columns and labels:
Test in all cases: phage ELISA
[1] = biological target: T1, mouse LTβR extracellular domain fused with an Fc fragment at the C-terminus (mouse, UniProt P50284 31-223)
T1 construct: extracellular domain; Bought; also called mLTβR; not shown: Fc fragment at the C-terminus
Description: (§1) Individual clones from the fourth selection round were grown in 96-well deep well blocks in 100 μl of 2YT broth supplemented with 50 μg/ml ampicillin at 37° C. and 220 rpm for 5 hours. Then, 5 μl of helper phages were added to each well and incubated at 37° C. for 30 minutes. After centrifuging at 3,000 rpm for 10 minutes, the cells were resuspended and grown overnight in 150 μl/well of 2YT broth supplemented with 50 μg/ml ampicillin and 50 μg/ml kanamycin.
(§2) For the ELISA screening, 96-well ELISA plates were coated with target proteins (1 μg/ml in PBS) at 4° C. overnight and then blocked with 2% BSA for 2 hours at room temperature. The supernatant containing phage particles was added to the plates and incubated at room temperature for 1 hour. After incubation, the plates were washed five times with PBST. HRP (horseradish peroxidase) conjugated anti-M13 antibody (Sino Biological, China) was added to the wells and incubated at room temperature for 1 hour. Following another round of washing five times with PBST, 50 μl of TMB (3,3′, 5,5″-tetramethylbenzidine, #34029, ThemoFisher) was added to each well. After 5 minutes, the reaction was stopped by adding 50 μl stop solution (#C1058, Solarbio, China). The absorbance at 450 nm (OD450) was measured using a plate reader (SpectraMax M5, Molecule Devices). Wells coated with BSA were used as negative controls. Phage clones with an ELISA score ratio (target/BSA)>3 were considered positive clones.

[2] = biological target: T2, human LTβR extracellular domain fused with an Fc fragment at the C-terminus (human, UniProt P36941 31-227)
T2 construct: extracellular domain; Bought; also called hLTβR; not shown: Fc fragment at the C-terminus
T2 sequence (P36941 31-227): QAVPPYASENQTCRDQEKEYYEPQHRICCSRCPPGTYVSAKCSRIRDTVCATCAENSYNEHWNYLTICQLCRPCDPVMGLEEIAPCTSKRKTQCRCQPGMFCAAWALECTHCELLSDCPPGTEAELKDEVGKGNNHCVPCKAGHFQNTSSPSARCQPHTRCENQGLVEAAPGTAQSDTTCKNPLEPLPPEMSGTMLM
Description: as §1, §2

[3] = biological target: T3, human HVEM extracellular domain fused with an Fc fragment at the C-terminus (human, UniProt Q92956 39-202)
T3 construct: extracellular domain; Bought; also called hHVEM; not shown: Fc fragment at the C-terminus
T3 sequence (looked up): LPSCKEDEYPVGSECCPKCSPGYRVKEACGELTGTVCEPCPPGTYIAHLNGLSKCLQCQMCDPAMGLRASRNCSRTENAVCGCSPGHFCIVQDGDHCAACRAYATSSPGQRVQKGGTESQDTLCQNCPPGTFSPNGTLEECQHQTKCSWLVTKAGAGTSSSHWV
Description: as §1, §2

Measured: binding result

T1 sequence (P50284 31-223): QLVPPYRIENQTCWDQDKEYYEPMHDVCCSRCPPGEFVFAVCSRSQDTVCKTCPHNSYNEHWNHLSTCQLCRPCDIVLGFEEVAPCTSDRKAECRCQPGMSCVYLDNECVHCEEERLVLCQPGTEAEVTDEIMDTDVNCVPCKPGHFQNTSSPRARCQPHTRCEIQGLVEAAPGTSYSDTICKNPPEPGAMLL

B1: LIGHT-53 (ligand)
chain: DGPAGSWEQLIQERRSHEVNPAAHLTGANSSLTGSGGPLLWETNLGLAFLRGLSYHDGALVVTKAGYYYIYSKVQLGGVGCPLGLASTITHGLYKRTPRYPEELELLVSQQSPCGRATSSSRVWWDSSFLGGVVHLEAGEKVVVRVSDERLVRTRDGTRSYFGAFMV
notes: Printed mutations: Q117N, L220S, L227T; Soluble protein carries an N-terminal His tag
binds: all assays above

B2: LIGHT-67 (ligand)
chain: DGPAGSWEQLIQERRSHEVNPAAHLTGANSSLTGSGGPLLWETQLGLAFLRGLSYHDGALVVTKAGYYYIYSKVQLGGVGCPLGLASSITHGLYKRTPRYPEELELLVSQQSPCGRATSSSRVWWDSSFLGGVVHLEAGEKVVVRVSDERLVRTRDGTRSYFGAFMV
notes: Printed mutations: T161S, L220S, L227T; Soluble protein carries an N-terminal His tag
binds: all assays above

B3: LIGHT-64 (ligand)
chain: DGPAGSWEQLIQERRSHEVNPAAHLTGANSSLTGSGGPLLWETQLGLAFLRGLSYHDGALVVTKAGYYYIYSKVQLGGVGCPLGLASPITHGLYKRTPRYPEELELLVSQQSPCGRATSSSRVWWDSSFLGGVVHLEAGEKVVVRVSDERLVRTRDGTRSYFGAFMV
notes: Printed mutations: T161P, L220S, L227T; Soluble protein carries an N-terminal His tag
binds: all assays above

B4: LIGHT-57 (ligand)
chain: DGPAGSWEQLIQERRSHEVNPAAHLTGANSSLTGSGGPLLWETQLGLAFLRGLSYHDGALVVTKAGYYYIYSKVQLGGVGCPLGLASTITHGLYKRTPRYPEELELLVSQQSPCGRATSSSRVWWDSSFLGGVVHLEAGEKVVVRVSDERLVRTRDGTRSYFGAFMV
notes: Printed mutations: L220S, L227T; Soluble protein carries an N-terminal His tag
binds: all assays above

B5: LIGHT-56 (ligand)
chain: DGPAGSWEQLIQERRSHEVNPAAHLTGANSSLTGSGGPLLWETELGLAFLRGLSYHDGALVVTKAGYYYIYSKVQLGGVGCPLGLASTITHGLYKRTPRYPEELELLVSQQSPCGRATSSSRVWWDSSFLGGVVHLEAGEKVVVRVTDERLVRTRDGTRSYFGAFMV
notes: Printed mutations: Q117E, L220T, L227T; Soluble protein carries an N-terminal His tag
binds: all assays above

B6: LIGHT-55 (ligand)
chain: DGPAGSWEQLIQERRSHEVNPAAHLTGANSSLTGSGGPLLWETNLGLAFLRGLSYHDGALVVTKAGYYYIYSKVQLGGVGCPLGLASTITHGLYKRTPRYPEELELLVSQQSPCGRATSSSRVWWDSSFLGGVVHLEAGEKVVVRVTDERLVRTRDGTRSYFGAFMV
notes: Printed mutations: Q117N, L220T, L227T; Soluble protein carries an N-terminal His tag
binds: all assays above

B7: LIGHT-66 (ligand)
chain: DGPAGSWEQLIQERRSHEVNPAAHLTGANSSLTGSGGPLLWETQLGLAFLRGLSYHDGALVVTKAGYYYIYSKVQLGGVGCPLGLAGTITHGLYKRTPRYPEELELLVSQQSPCGRATSSSRVWWDSSFLGGVVHLEAGEKVVVRVTDERLVRTRDGTRSYFGAFMV
notes: Printed mutations: S160G, L220T, L227T; Soluble protein carries an N-terminal His tag
binds: all assays above

B8: LIGHT-63 (ligand)
chain: DGPAGSWEQLIQERRSHEVNPAAHLTGANSSLTGSGGPLLWETQLGLAFLRGLSYHDGALVVTKAGYYYIYSKVQLGGVGCPLGLASGITHGLYKRTPRYPEELELLVSQQSPCGRATSSSRVWWDSSFLGGVVHLEAGEKVVVRVSDERLVRTRDGTRSYFGAFMV
notes: Printed mutations: T161G, L220S, L227T; Soluble protein carries an N-terminal His tag
binds: all assays above

B9: LIGHT-68 (ligand)
chain: DGPAGSWEQLIQERRSHEVNPAAHLTGANSSLTGSGGPLLWETQLGLAFLRGLSYHDGALVVTKAGYYYIYSKVQLGGVGCPLGLAGGITHGLYKRTPRYPEELELLVSQQSPCGRATSSSRVWWDSSFLGGVVHLEAGEKVVVRVSDERLVRTRDGTRSYFGAFMV
notes: Printed mutations: S160G, T161G, L220S, L227T; Soluble protein carries an N-terminal His tag
binds: all assays above

B10: LIGHT-70 (ligand)
chain: DGPAGSWEQLIQERRSHEVNPAAHLTGANSSLTGSGGPLLWETNLGLAFLRGLSYHDGALVVTKAGYYYIYSKVQLGGVGCPLGLASGITHGLYKRTPRYPEELELLVSQQSPCGRATSSSRVWWDSSFLGGVVHLEAGEKVVVRVSDERLVRTRDGTRSYFGAFMV
notes: Printed mutations: Q117N, T161G, L220S, L227T; Soluble protein carries an N-terminal His tag
binds: all assays above

B11: LIGHT-72 (ligand)
chain: DGPAGSWEQLIQERRSHEVNPAAHLTGANSSLTGSGGPLLWETNLGLAFLRGLSYHDGALVVTKAGYYYIYSKVQLGGVGCPLGLAGTITHGLYKRTPRYPEELELLVSQQSPCGRATSSSRVWWDSSFLGGVVHLEAGEKVVVRVSDERLVRTRDGTRSYFGAFMV
notes: Printed mutations: Q117N, S160G, L220S, L227T; Soluble protein carries an N-terminal His tag
binds: all assays above

B12: LIGHT-59 (ligand)
chain: DGPAGSWEQLIQERRSHEVNPAAHLTGANSSLTGSGGPLLWETQLGLAFLRGLSYHDGALVVTKAGYYYIYSKVQLGGVGCPLGLAGPITHGLYKRTPRYPEELELLVSQQSPCGRATSSSRVWWDSSFLGGVVHLEAGEKVVVRVSDERLVRLRDGTRSYFGAFMV
notes: Printed mutations: S160G, T161P, L220S; Soluble protein carries an N-terminal His tag
binds: all assays above

B13: LIGHT-54 (ligand)
chain: DGPAGSWEQLIQERRSHEVNPAAHLTGANSSLTGSGGPLLWETELGLAFLRGLSYHDGALVVTKAGYYYIYSKVQLGGVGCPLGLASTITHGLYKRTPRYPEELELLVSQQSPCGRATSSSRVWWDSSFLGGVVHLEAGEKVVVRVSDERLVRTRDGTRSYFGAFMV
notes: Printed mutations: Q117E, L220S, L227T; Soluble protein carries an N-terminal His tag
binds: all assays above

B14: LIGHT-62 (ligand)
chain: DGPAGSWEQLIQERRSHEVNPAAHLTGANSSLTGSGGPLLWETQLGLAFLRGLSYHDGALVVTKAGYYYIYSKVQLGGVGCPLGLAGGITHGLYKRTPRYPEELELLVSQQSPCGRATSSSRVWWDSSFLGGVVHLEAGEKVVVRVTDERLVRLRDGTRSYFGAFMV
notes: Printed mutations: S160G, T161G, L220T; Soluble protein carries an N-terminal His tag
binds: all assays above

B15: LIGHT-71 (ligand)
chain: DGPAGSWEQLIQERRSHEVNPAAHLTGANSSLTGSGGPLLWETNLGLAFLRGLSYHDGALVVTKAGYYYIYSKVQLGGVGCPLGLASPITHGLYKRTPRYPEELELLVSQQSPCGRATSSSRVWWDSSFLGGVVHLEAGEKVVVRVSDERLVRTRDGTRSYFGAFMV
notes: Printed mutations: Q117N, T161P, L220S, L227T; Soluble protein carries an N-terminal His tag
binds: all assays above

B16: LIGHT-69 (ligand)
chain: DGPAGSWEQLIQERRSHEVNPAAHLTGANSSLTGSGGPLLWETQLGLAFLRGLSYHDGALVVTKAGYYYIYSKVQLGGVGCPLGLAGPITHGLYKRTPRYPEELELLVSQQSPCGRATSSSRVWWDSSFLGGVVHLEAGEKVVVRVSDERLVRTRDGTRSYFGAFMV
notes: Printed mutations: S160G, T161P, L220S, L227T; Soluble protein carries an N-terminal His tag
binds: all assays above

B17: LIGHT-73 (ligand)
chain: DGPAGSWEQLIQERRSHEVNPAAHLTGANSSLTGSGGPLLWETELGLAFLRGLSYHDGALVVTKAGYYYIYSKVQLGGVGCPLGLASGITHGLYKRTPRYPEELELLVSQQSPCGRATSSSRVWWDSSFLGGVVHLEAGEKVVVRVSDERLVRTRDGTRSYFGAFMV
notes: Printed mutations: Q117E, T161G, L220S, L227T; Soluble protein carries an N-terminal His tag
binds: all assays above

B18: LIGHT-65 (ligand)
chain: DGPAGSWEQLIQERRSHEVNPAAHLTGANSSLTGSGGPLLWETQLGLAFLRGLSYHDGALVVTKAGYYYIYSKVQLGGVGCPLGLAGTITHGLYKRTPRYPEELELLVSQQSPCGRATSSSRVWWDSSFLGGVVHLEAGEKVVVRVSDERLVRTRDGTRSYFGAFMV
notes: Printed mutations: S160G, L220S, L227T; Soluble protein carries an N-terminal His tag
binds: all assays above
